This is an account of results in patent US20250297018A1, “IL-18BP ANTAGONIST ANTIBODIES AND THEIR USE IN MONOTHERAPY AND COMBINATION THERAPY IN THE TREATMENT OF CANCER” (Compugen Ltd., priority 2022, published 2025).

Where a chain is given by its changes, count along the chain named.

One series deals with T1, IL18 (Homo sapiens, UniProt Q14116).
T1 sequence (Q14116 37-193): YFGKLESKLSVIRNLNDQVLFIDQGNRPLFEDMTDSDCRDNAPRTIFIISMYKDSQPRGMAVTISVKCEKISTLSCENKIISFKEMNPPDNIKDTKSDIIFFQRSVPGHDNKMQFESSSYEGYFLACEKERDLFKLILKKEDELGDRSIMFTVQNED
The settings on record: Kim et al., PNAS 2000; read-out: Dissociation constant (Kd) for IL18; cited from earlier work.

A short description of series [1]: MC38ova tumor-bearing mice treated with anti-mIL18BP or engineered mIL-18: weight, serum cytokines, spleen. It is filed as in vivo, mouse. To be noted: spleens harvested 24 hours after the 4th treatment (IL-15: single dose), vs control. Here is the method: Experiments were performed in C57Bl/6 (female, 6-8 wk, Envigo). Mice were anesthetized with 10% Ketamine and 10% Xylazine mixture injected intraperitoneal. Next, mice were inoculated with MC38ova cells (1.2×10^6) subcutaneously to the right flank in 50 μl/mice.
Spleens were harvested from mice 24 hours after the 4th treatment and weighed. For IL15 experiments, mice were treated with a single dose of 0.5 μg, 1.5 μg of IL15, or with a mix of 0.5 μg IL15 and 2.33 μg IL15R.

The target of a further series is T2, endogenous IL-18BP (Homo sapiens, UniProt O95998).
T2 construct: endogenous in cells; host or cells: MEL624 cells co-cultured with human TILs
T2 sequence (O95998 31-194): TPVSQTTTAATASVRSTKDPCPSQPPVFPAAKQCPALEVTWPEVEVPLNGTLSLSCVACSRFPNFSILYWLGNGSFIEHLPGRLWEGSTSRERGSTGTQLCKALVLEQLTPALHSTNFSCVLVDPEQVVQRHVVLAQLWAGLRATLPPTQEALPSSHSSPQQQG
In words: MEL624:TIL co-culture with endogenous IL-18BP levels, IFNg release. In kind it is cell-based. To be noted: IL-18 3.7 ng/ml, 5 μg/ml antibody, 18 hours, vs isotype. Here is the method:
A. Schematic representation of assay setup. MEL624 cells were co-cultured with human TILs that were previously enriched for MARTI or gp100 peptide-specific clones. IL-18 (3.7 ng/ml) was added to the co-culture along with 5 μg/ml ADI-71739 or isotype control. The co-culture was set for 18 hours following which IFNg levels were measured in supernatants. B. IFNg levels were increased in co-cultures treated with ADI-71739 (turquoise) as compared with isotype-treated samples (black). Representative examples from two TIL donors are shown.

The next series has as its system MEL624 cells. In words: Killing of MEL624 melanoma cells by human TILs (IncuCyte). The settings on record: rhIL-18 50 ng/ml + rhIL-18BP 1 μg/ml, 10 μg/ml antibody, 72 hours. It is filed as cell-based. Here is the method:
MEL624 cells were co-cultured with human TILs that were previously enriched for MARTI or gp100 peptide-specific clones. rhIL-18 (R&D systems, 50 ng/ml) and rhIL-18BP (R&D systems, 1 μg/ml) were added to the co-culture for 30 minutes to allow the formation of IL-18:IL-18BP complex prior to treatment with 10 μg/ml ADI-71739 or isotype control. The co-culture was monitored for 72 hours using an IncuCyte live cell imaging instrument. […] In the presence of the isotype control antibody (black), IL-18BP abrogated the effects of IL-18, while the anti-IL-18BP antibody (turquoise) was able to completely restore these effects.

The target in series [2] is T3, recombinant human IL18-BP (Homo sapiens, UniProt O95998).
T3 construct: purchased R&D systems 119-BP; host or cells: added to MEL624/PD-L1 + CMV-reactive T-cell culture
T3 sequence (O95998 31-194): T2 sequence (O95998 31-194)
In words: CMV recall assay, IFNγ secretion by CMV-reactive T-cells. In kind it is cell-based. To be noted: rhIL-18 30 ng/ml + rhIL-18BP 2 μg/ml; antibodies 10 μg/ml. Here is the method:
Human MEL-624 overexpressing PD-L1 cells were thawed and loaded with CMV pp65 peptide (0.03 μg/ml). The cells were seeded at 100K/well in a 96 well plate and incubated for 30 minutes in 37° C., 5% CO2 incubator with a combination rhIL-18 (30 ng/ml, R&D systems, 9124-IL/CF) and rhIL-18BP-Fc chimeric protein ([…], R&D systems 119-BP) to allow IL-18+IL-18BP complex formation. After 30 minutes, anti-human IL-18BP (ADI-71722, anti-human PVRIG, anti-human TIGIT (anti-TIGIT), anti-human PD1 (Pembrolizumab) or relevant isotype control (hIgG4) were added to the culture to examine their capability to restore IL-18 activity. All antibodies were added to a final concentration of 10 μg/ml. 30 minutes post incubation with antibodies, thawed CMV-reactive T-cells were added to the culture. Cells and all added solutions were prepared in full IMDM (IMDM media with 10% human serum, 1% Glutamax, 1% MEM eagle, 1% sodium pyruvate, and 1% Penicillin-Streptomycin Solution) to a final volume of 200 μl/well. Plates were incubated for 24 hours in 37° C., 5% CO2 incubator, after which the supernatant was collected for IFNγ secretion evaluation. All tests were done in triplicates and each repeated with three donors.
MEL624 cells that overexpress PD-L1 were loaded with CMV peptide pp65. […] CMV-specific T-cells were then added to the culture and IFNg secretion was measured after an overnight incubation.

Series [3] has as its target T3, recombinant human IL18-BP. As to the kind of experiment: MEL624:TIL assay, IFNγ secretion. In kind it is cell-based. The settings on record: rhIL-18 30 ng/ml + rhIL-18BP 1 μg/ml, 24 h, vs isotype control. The procedure:
Human MEL624 cells were thawed and grown in DMEM with 10% FBS, 1% Glutamax, 1% Penicillin-Streptomycin Solution and 1% HEPES buffer. The cells were then seeded at 75 k cells/well in a 96 well plate in the assay medium (IMDM with 10% human serum, 1% Glutamax, 1% MEM eagle, 1% Sodium Pyruvate and 1% Penicillin-Streptomycin Solution) and incubated 1 hour in 37° C., 5% CO2 incubator before co-culture with human tumor infiltrating lymphocytes that were previously expanded using known melanoma antigens (TILs). Human TILs were thawed in full TIL media and 75 k cells/well were co-cultured with the MEL624 cells to create an effector:target ratio of 1:1. The co-cultured cells were then treated with rhIL-18 (30 ng/ml) and rhIL-18BP (1 μg/ml) for 30 min in 37° C., 5% CO2 incubator to allow IL-18:IL-18BP complex formation. After 30 minutes, anti-human IL-18BP mAb (ADI-71722, dose titration, 30 μg/ml-0.01 μg/ml, dilution factor of 1:3) or relevant isotype control (hIgG1 30 μg/ml) were added to the co-culture to examine its capability to restore IL-18 activity. Cells and all added solutions were prepared in full assay medium to a final volume of 200 μl/well. Plates were incubated for 24 hours in 37° C., 5% CO2 incubator, after which the supernatant was collected for cytokine secretion evaluation. […]
Where applicable, the EC50 value was calculated using GraphPad Prism software.

For another series, the system named is human whole blood. In words: Whole blood loop assay (ID.Flow). In kind it is cell-based. The settings on record: ex vivo whole blood loop, six healthy volunteers, 24 hr. The procedure:
Flow, an ex vivo system that mimics the human blood circulation. Fresh whole blood was taken from six healthy volunteers and immediately transferred to a whole blood loop system. The test items were administered, and the blood was set to circulate at 37° C. to prevent clotting. Blood samples collected at the 24 hr time point were analyzed for hematology and flow cytometry parameters and then processed to plasma for cytokine analysis. The anti-CD52 antibody Alemtuzumab was included as a reference antibody with manageable cytokine release in the clinic.

“IL18-BPa: most abundant human IL18-BP isoform, isoform a”: in the series with IL18, the Kd is around 0.4 nM.
In the case of “IL-15: IL15 given as single dose of 0.5 μg or 1.5 μg, or mixed with IL15R [reference compound]”, in series [1], the Spleen size result is “larger than controls”.

B1: ADI-71739: anti-IL18-BP antibody, VH SEQ ID NO: 154, VL SEQ ID NO: 159 (FIG. 2K), 66716 lineage (antibody, V domains shown)
VH: QLQLQESGPGLVKPSETLSLTCTVSGGSISSPDYPWGWIRQPPGKGLEWIGSIYYQGATYYNPSLKSRVTISVDTSKNQFSLKLSSVTAADTAVYYCARGPYRQLFDYWGQGTLVTVSS
VL: DIQMTQSPSSVSASVGDRVTITCRASQGISSWLAWYQQKPGKAPKLLIYAASSLQSGVPSRFSGSGSGTDFTLTISSLQPEDFATYYCQQGSVFPYTFGGGTKVEIK
For B1, the “IFNg release by tumor infiltrating lymphocytes” value with endogenous IL-18BP is on record as “increased IFNg release by tumor infiltrating lymphocytes”. For the same molecule, the “Killing of melanoma cells by tumor infiltrating lymphocytes” value with MEL624 cells was “increased killing of melanoma cells by tumor infiltrating lymphocytes”. Also, the “IFNγ secretion by CMV-reactive T-cells” value in series [2] is given as “increase IFNγ secretion by the T cells”. For the same molecule, the “IFNγ secretion from TILs” value in series [3] is recorded as “increase IFNγ secretion from TILs compared to isotype control”.

B2: ADI-71722: anti-IL18-BP antibody, VH SEQ ID NO: 84, VL SEQ ID NO: 89 (FIG. 2D), 66670 lineage (antibody, V domains shown)
VH: QVQLVQSGAEVKKPGSSVKVSCKASGGTFSEYPISWVRQAPGQGLEWMGGIIPGAGTAIYAQKFQGRVTITADESTSTAYMELSSLRSEDTAVYYCARGRHFHETWGQGTLVTVSS
VL: B1 VL with G91V, S92Y, V93R, Y96W
For the molecule B2, the “IFNγ secretion by CMV-reactive T-cells” value in series [2] was “fully restore IFNγ secretion”.

B3: ADI-71709: anti-IL18-BP antibody, VH SEQ ID NO: 54, VL SEQ ID NO: 59 (FIG. 2A), 66650 lineage (antibody, V domains shown)
VH: QVQLVQSGAEVKKPGASVKVSCEASGYTFDIYAVHWVRQAPGQRLEWMGWIHAGTGATKYSQKFQGRVTITRDTSASTAYMELSSLRSEDTAVYYCARGLGEVGPTGTSWFDPWGQGTLVTVSS
VL: DIQMTQSPSTLSASVGDRVTITCRASQSISSWLAWYQQKPGKAPKLLIYEASSLESGVPLRFSGSGSGTEFTLTISSLQPDDFATYYCQQYRQSPFTFGGGTKVEIK
In the case of B3, the “Signs of systemic immune activation” value in the series on human whole blood is recorded as “did not show signs of systemic immune activation”.

The Kd is the concentration at which binding is half-saturated.
